In patent US20110251126A1, “INTESTINAL TREATMENT” (priority 2008, published 2011):
Numbering of substitutions follows the chain as printed. Square brackets hold non-standard residues; d marks the D form. Ends that are not written are not given here. Nle = CCCC[C@H](N)C(=O)O

B1: [Nle17,Nle30]hPP3-36 (peptide)
peptide: LEPVYPGDNATPEQ[Nle]AQYAADLRRYIN[Nle]LTRPRY
modifications: ends and bridges not checked
B2: [Ala30]hPP (peptide)
peptide: APLEPVYPGDNATPEQMAQYAADLRRYINALTRPRY
modifications: ends and bridges not checked
B3: [Glu10]hPP (peptide)
peptide: B2 peptide with D10E, A30M
modifications: ends and bridges not checked
B4: [Thr30]hPP (peptide)
peptide: B2 peptide with A30T
modifications: ends and bridges not checked
B5: [Nle17,Nle30]hPP (peptide)
peptide: B2 peptide with M17X, A30X
modifications: norleucine (Nle) at positions 17 and 30
B6: [Asn30]hPP (peptide)
peptide: B2 peptide with A30N
modifications: ends and bridges not checked
B7: [Glu10,Leu17,Thr30]hPP (peptide)
peptide: B2 peptide with D10E, M17L, A30T
modifications: ends and bridges not checked
B8: [Gln30]hPP (peptide)
peptide: B2 peptide with A30Q
modifications: ends and bridges not checked
B9: hPP2-36 (peptide)
peptide: PLEPVYPGDNATPEQMAQYAADLRRYINMLTRPRY-NH2
B10: [Thr30]hPP2-36 (peptide)
peptide: PLEPVYPGDNATPEQMAQYAADLRRYINTLTRPRY
modifications: ends and bridges not checked
B11: [Gln30]hPP2-36 (peptide)
peptide: B10 peptide with T29Q
modifications: ends and bridges not checked
B12: [Glu10]hPP2-36 (peptide)
peptide: B10 peptide with D9E, T29M
modifications: ends and bridges not checked
B13: [Glu10,Leu17,Thr30]hPP2-36 (peptide)
peptide: B10 peptide with D9E, M16L
modifications: ends and bridges not checked
B14: [Nle17,Nle30]hPP2-36 (peptide)
peptide: B10 peptide with M16X, T29X
modifications: norleucine (Nle) at positions 17 and 30, numbered on full-length hPP (SEQ ID No:3)
B15: [Asn30]hPP2-36 (peptide)
peptide: B10 peptide with T29N
modifications: ends and bridges not checked
B16: [Ala30]hPP3-36 (peptide)
peptide: LEPVYPGDNATPEQMAQYAADLRRYINALTRPRY
modifications: ends and bridges not checked
B17: [Thr30]hPP3-36 (peptide)
peptide: B16 peptide with A28T
modifications: ends and bridges not checked
B18: [Glu10]hPP3-36 (peptide)
peptide: B16 peptide with D8E, A28M
modifications: ends and bridges not checked
B19: [Gln30]hPP3-36 (peptide)
peptide: B16 peptide with A28Q
modifications: ends and bridges not checked
B20: [Asn30]hPP3-36 (peptide)
peptide: B16 peptide with A28N
modifications: ends and bridges not checked
B21: [Glu10,Leu17,Thr30]hPP3-36 (peptide)
peptide: B16 peptide with D8E, M15L, A28T
modifications: ends and bridges not checked

Biological target: human Y4 receptor (human, UniProt P50391 1-375)
Sequence (P50391 whole entry): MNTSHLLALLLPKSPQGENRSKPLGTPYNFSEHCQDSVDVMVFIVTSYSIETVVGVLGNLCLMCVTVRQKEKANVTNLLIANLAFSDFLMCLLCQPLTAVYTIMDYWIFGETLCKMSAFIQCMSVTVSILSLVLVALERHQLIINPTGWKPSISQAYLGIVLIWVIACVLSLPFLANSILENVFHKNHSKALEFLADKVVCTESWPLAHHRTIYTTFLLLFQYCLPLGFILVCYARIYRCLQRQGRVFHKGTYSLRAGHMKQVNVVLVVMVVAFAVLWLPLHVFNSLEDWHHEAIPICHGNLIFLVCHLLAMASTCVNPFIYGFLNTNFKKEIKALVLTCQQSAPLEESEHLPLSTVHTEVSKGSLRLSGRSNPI
Test: cell-based or functional assay

| Binder | agonist potency (inositol phosphate turnover, transfected COS-7 cells): fold greater at Y4 than at Y1 receptor | agonist potency (inositol phosphate turnover, transfected COS-7 cells): fold greater at Y4 than at Y2 receptor |
| --- | --- | --- |
| B1 | ≥ 200 fold | ≥ 1000 fold |
| B2 | ≥ 200 fold | ≥ 1000 fold |
| B3 | ≥ 200 fold | ≥ 1000 fold |
| B4 | ≥ 200 fold | ≥ 1000 fold |
| B5 | ≥ 200 fold | ≥ 1000 fold |
| B6 | ≥ 200 fold | ≥ 1000 fold |
| B7 | ≥ 200 fold | ≥ 1000 fold |
| B8 | ≥ 200 fold | ≥ 1000 fold |
| B9 | ≥ 200 fold | ≥ 1000 fold |
| B10 | ≥ 200 fold | ≥ 1000 fold |
| B11 | ≥ 200 fold | ≥ 1000 fold |
| B12 | ≥ 200 fold | ≥ 1000 fold |
| B13 | ≥ 200 fold | ≥ 1000 fold |
| B14 | ≥ 200 fold | ≥ 1000 fold |
| B15 | ≥ 200 fold | ≥ 1000 fold |
| B16 | ≥ 200 fold | ≥ 1000 fold |
| B17 | ≥ 200 fold | ≥ 1000 fold |
| B18 | ≥ 200 fold | ≥ 1000 fold |
| B19 | ≥ 200 fold | ≥ 1000 fold |
| B20 | ≥ 200 fold | ≥ 1000 fold |
| B21 | ≥ 200 fold | ≥ 1000 fold |
